From US20210072250A1

What was measured:
P1-Hpu [1] = assay: SPR, Biacore T200, peptide captured, Fab flowed
P5-Hpu [2] = assay: SPR, Biacore T200, peptide captured, Fab flowed
P2-Hpu [3] = assay: SPR, Biacore T200, peptide captured, Fab flowed
P4-Hpu [4] = assay: SPR, Biacore T200, peptide captured, Fab flowed
P3-Hpu [5] = assay: SPR, Biacore T200, peptide captured, Fab flowed
P1-Hpu [6] = assay: SPR, ratio of KD values
P5-Hpu [7] = assay: SPR, ratio of KD values
P2-Hpu [8] = assay: SPR, ratio of KD values
P3-Hpu [9] = assay: SPR, ratio of KD values
P4-Hpu [10] = assay: SPR, ratio of KD values
P2-deoxy [11] = assay: SPR, Biacore T200, peptide captured, Fab flowed
P1-deoxy [12] = assay: SPR, Biacore T200, peptide captured, Fab flowed
P2-deoxy [13] = assay: SPR, ratio of KD values
P1-deoxy [14] = assay: SPR, ratio of KD values
P1-Hpu [15] = assay: SPR
P1-deoxy [16] = assay: SPR

Kd (P1-Hpu [1]) [nM] | Kd (P5-Hpu [2]) [nM] | Kd (P2-Hpu [3]) [nM] | Kd (P4-Hpu [4]) [nM] | Kd (P3-Hpu [5]) [nM] | Fold improvement in KD over parent FabHpu24 (P1-Hpu [6]) [fold] | Fold improvement in KD over parent FabHpu24 (P5-Hpu [7]) [fold] | Fold improvement in KD over parent FabHpu24 (P2-Hpu [8]) [fold] | Fold improvement in KD over parent FabHpu24 (P3-Hpu [9]) [fold] | Fold improvement in KD over parent FabHpu24 (P4-Hpu [10]) [fold] | Kd (P2-deoxy [11]) [nM] | Kd (P1-deoxy [12]) [nM] | Fold improvement in KD over parent FabHpu98 (P1-Hpu [6]) [fold] | Fold improvement in KD over parent FabHpu98 (P5-Hpu [7]) [fold] | Fold improvement in KD over parent FabHpu98 (P2-deoxy [13]) [fold] | Fold improvement in KD over parent FabHpu98 (P1-deoxy [14]) [fold] | Fold improvement in KD over parent FabHpu98 (P2-Hpu [8]) [fold] | Fold improvement in KD over parent FabHpu98 (P4-Hpu [10]) [fold] | Kd (P1-Hpu [15]) [nM] | Kd (P1-deoxy [16]) [nM] | Binder
192 | 96 | 157 | 541 |  |  |  |  |  |  |  |  |  |  |  |  |  |  |  |  | FabHpu24 (Fab) heavy: QEQLKESGGRLVAPGTPLTLTCTVSGFDISDYAMIWVRQAPGKGLEWIGIIYGGSNKLAYAKWAKGRFTISRTSTTVDLKITSPTTEDTATYFCARGYGSMDGYDRLNLWGQGTLVTVSSGQPKGPSVFPLAPCCGDTPSSTVTLGCLVKGYLPEPVTVTWNSGTLTNGVRTFPSVRQSSGLYSLSSVVSVTSSSQPVTCNVAHPATNTKVDKTVAPSTCSKPT light: AAVLTQTPSPVSAAVGGTVTISCQSSETVYRGDWLSWFQKKPGQPPKLLIYDASYLASGVSSRFSGSGSGTHFTLTISGVQCDDAATYYCLGGYYDDADDTFGGGTEVVVKGDPVAPTVLIFPPAADQVATGTVTIVCVANKYFPDVTVTWEVDGTTQTTGIENSKTPQNSADCTYNLSSTLTLTSTQYNSHKEYTCKVTQGTTSVVQSFNRGDC
6 | 7 | 13 | 32 | 186 | 32 | 13 | 12 | > 5 | 17 |  |  |  |  |  |  |  |  |  |  | FabHpu24.B (Fab) heavy: QEQLKESGGRLVAPGTPLTLTCTVSGFDISDYAMIWVRQAPGKGLEWIGIIYGVINDLAYAKWAKGRFTISRTSTTVDLKITSPTTEDTATYFCARGYGSMDGYDRLNLWGQGTLVTVSSGQPKGPSVFPLAPCCGDTPSSTVTLGCLVKGYLPEPVTVTWNSGTLTNGVRTFPSVRQSSGLYSLSSVVSVTSSSQPVTCNVAHPATNTKVDKTVAPSTCSKPT light: AAVLTQTPSPVSAAVGGTVTISCRSRQRVYLGDWLSWFQKKPGQPPKLLIYDASFRGDGVSSRFSGSGSGTHFTLTISGVQCDDAATYYCLGGYYDDADDTFGGGTEVVVKGDPVAPTVLIFPPAADQVATGTVTIVCVANKYFPDVTVTWEVDGTTQTTGIENSKTPQNSADCTYNLSSTLTLTSTQYNSHKEYTCKVTQGTTSVVQSFNRGDC
15 | 70 | 78 | 91 |  |  |  |  |  |  | 86 | 17 | 7.9 | 2.5 | 1.8 | 6.9 | 2.6 | 2.5 | 18 | 20 | FabHpu98.61 (Fab) heavy: QSVEESGGRLVTPGTPLTLTCTVSACSLYHCTMNWVRQAPGKGLEWIGDIYTDGNTYYANWAKGRFTISKTSTTVDLKITSPTTEDTATYFCARDSWDASSYYGLDLWGQGTLVTVSSGQPKGPSVFPLAPCCGDTPSSTVTLGCLVKGYLPEPVTVTWNSGTLTNGVRTFPSVRQSSGLYSLSSVVSVTSSSQPVTCNVAHPATNTKVDKTVAPSTCSKPT light: AIKMTQTPSSVSAAVGGTVTINCQASEDIKRYLAWYQQKPGQPPKLLIYAASKLASGVSSRFKGSGSGTEYTLTISGVQCDDAATYYCQQGYTSSNVNNAFGGGTEVVVKGDPVAPTVLIFPPAADQVATGTVTIVCVANKYFPDVTVTWEVDGTTQTTGIENSKTPQNSADCTYNLSSTLTLTSTQYNSHKEYTCKVTQGTTSVVQSFNRGDC
